Measured values published in the MegaScale stability set (Tsuboyama et al. 2023).

B1: EHEE_rd2_0601 (parent)
chain: TYTYKLTDEEASRRAEDEWRNRGYDVRVRNNNGTWEVEVR
B2: EHEE_rd4_0086 (parent)
chain: EIHIRTNGEEQARKVYKMLAKRNYDVKIEQHNGQWVVTAS

Variants of: B1
Experiment: folding stability dG (cDNA display proteolysis); higher = more stable
Conditions: PBS, room temperature

Row | Variant | folding stability dG [kcal/mol]
1 | N32Q | 1.05
2 | N32F | 0.778
3 | S12R | 0.481
4 | S12C | 2.33
5 | S12I | 0.918
6 | E36L | 1.6
7 | E36T | 1.27
8 | E36N | 0.173
9 | E36S | 0.611
10 | E36F | 1.75
11 | E36I | 1.93
12 | E36V | 1.58
13 | E36Q | 0.744
14 | T34W | 1.54
15 | T34R | 0.865
16 | T34N | 0.99
17 | T34F | 1.62
18 | T34G | 0.674
19 | T34M | 1.58
20 | T34D | 0.864
21 | T34A | 1.17
22 | T34Q | 1.48

Row | Variant | folding stability dG [kcal/mol]
23 | A11G | 0.768
24 | A11P | -0.502
25 | A11D | 1.12
26 | A11E | 1.5
27 | A11W | 0.697
28 | A11Q | 1.22
29 | A11L | 0.971
30 | K5I | 2.2
31 | K5A | 1.38
32 | K5N | 1.38
33 | K5P | 0.658
34 | K5M | 1.72
35 | E38N | 0.56
36 | E38G | -0.74
37 | E38V | 1.61
38 | E38A | 0.691
39 | E38K | 0.392
40 | E38H | 1.02
41 | E38T | 1.71
42 | R20I | 0.853
43 | R20N | 0.373
44 | R20W | -0.078

Row | Variant | folding stability dG [kcal/mol]
45 | R20V | 0.659
46 | R20M | 0.619
47 | R20E | -0.108
48 | L6D | 0.391
49 | L6S | 1.23
50 | L6E | 0.639
51 | L6T | 1.8
52 | L6P | -0.21
53 | L6G | 0.912
54 | L6F | 3.77
55 | L6N | 0.622
56 | Y24M | 0.281
57 | Y24L | 0.28
58 | Y24I | -0.012
59 | Y24T | -0.625
60 | Y24A | 0.049
61 | Y24Q | -0.84
62 | Y24C | 1.21
63 | Y24R | -0.49
64 | R22Q | 0.939
65 | R22V | -0.052
66 | R22F | 0.44

Row | Variant | folding stability dG [kcal/mol]
67 | R22H | 0.666
68 | R22A | 1.22
69 | R22N | 0.518
70 | R22S | 0.439
71 | N21I | 1.22
72 | N21A | 1.82
73 | N21L | 1.65
74 | N21G | 1.42
75 | N21Q | 1.65
76 | N21E | 1.34
77 | T3K | 1.13
78 | T3Q | 0.604
79 | T3Y | 1.36
80 | T3G | 0.036
81 | T3I | 1.92
82 | T3W | 1.24
83 | T3C | 2.36
84 | T3S | 0.898
85 | T3M | 1.18

Variants of: B2
Experiment: as above
Conditions: PBS, room temperature

Row | Variant | folding stability dG [kcal/mol]
86 | A20F | 1.58
87 | I4Q | 0.032
88 | I4A | 0.01
89 | A39M | 1.98
90 | Q11K | 1.4
91 | Q11A | 1.89
92 | Q11T | 1.59
93 | Q11W | 2.1
94 | A12F | -0.019
95 | Y24L | 1.69
96 | Y24P | 0.856
97 | N7Y | 1.99
98 | N7V | 1.66
99 | N7I | 1.69
100 | N7H | 1.73
101 | E1V | 2.47
102 | V26P | 1.02
103 | V26S | -0.013
104 | V26Y | -0.299
105 | V26T | 0.533
106 | S40T | 2.08

Row | Variant | folding stability dG [kcal/mol]
107 | V36D | 0.384
108 | V36S | 1.23
109 | V36E | 0.934
110 | V15Q | 0.153
111 | W35Y | 0.915
112 | N23P | 0.533
113 | H31F | 2.11
114 | H31C | 2.09
115 | G8A | 1.79
116 | G8D | 2.96
117 | G8P | 0.221
118 | E9Q | 1.52
119 | G33F | 0.875
120 | G33K | 0.996
121 | G33M | 0.969
122 | G33E | 1.21
123 | G33D | 1.35
124 | K17W | 2.11
125 | K17I | 2.03
126 | Q34A | 1.77
127 | Q34P | -0.941

Row | Variant | folding stability dG [kcal/mol]
128 | Q34S | 1.67
129 | I28Y | 0.682
130 | I28Q | -0.461
131 | I28R | -0.747
132 | I28L | 1.56
133 | K21L | 2.06
134 | K21H | 1.69
135 | K21D | 2.13
136 | K21E | 2
137 | K21G | 1.82
138 | K14A | 1.86
139 | K14Y | 2.02
140 | K14S | 1.34
141 | K14R | 2.12
142 | I2K | 0.769
143 | I2R | 0.978
144 | I2W | 2.36
145 | I2H | 0.983
146 | I2M | 1.38
147 | R5I | 2.4
148 | Y16V | 1.23

Row | Variant | folding stability dG [kcal/mol]
149 | Y16R | 1.15
150 | D25N | 2.27
151 | T38E | 0.543
152 | T38L | 1.75
153 | R22I | 1.31
154 | R22K | 1.85
155 | R22Y | 2.05
156 | E29H | 1.78
157 | L19A | -0.32
158 | R13F | 1.5
159 | M18R | 1.25
160 | M18S | 1.35
161 | M18V | 1.48
162 | Q30W | 1.8
163 | Q30T | 1.49
164 | Q30S | 1.58
165 | N32W | 1.12
166 | N32A | 1.7
167 | N32Q | 1.65
